{
  "source": "the nanobody polyreactivity screen of Harvey et al. (2022)",
  "data": [
    {"assay": "yeast display, Sf9 membrane polyspecificity reagent, FACS + sequencing; frameworks hold sequencing errors", "method_in_brief": "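After 36–48 hours of galactose induction, yeast (Saccharomyces cerevisiae BJ5465) displaying a synthetic nanobody library were stained at 4 °C for 1 hour with 10% biotinylated, detergent-solubilized Sf9 membrane reagent. Streptavidin microbeads enriched the stained cells before FACS sorting into low and high (top ~1%) gates on anti-HA and streptavidin fluorescence. Each clone's polyreactivity label reflects its gate of origin.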", "values": [
      {"sequence": "QVQLVESGGGLVQAGGSLRLSCAASGITFVYYAMGWYRQAPGNERELVATIDRSGTSTYYADSVKGRFTISRDNAKNTVVLQMTSLKQEDTAVYDCNAHRYAFYQYYRRMDYWGKGTQVTVSS", "polyreactivity (PSR sort gate)": "high polyreactivity"},
      {"sequence": "QVQLVESGGGLVQAGGSLRLSCAASGITFVYYDMGWYRQAPGKERELVAAISSDGSTYYADSVKGRFTISRDNAKNTVYLQMNSLKPEDSAVYYCAADYFNYRGYTYLGDYWGQCTQVTVSS", "polyreactivity (PSR sort gate)": "low polyreactivity"},
      {"sequence": "QVQLVESGGGLVQAGGSLRLSCAASGITFWFNAMGWYRQAPGKERELVAAITSGVDTNYADSVKGRFTISRDNAKNTVYLQMNSLKPEDTAVYYCAAQGGRLKRGRTTSDYWGQGTQVTVSS", "polyreactivity (PSR sort gate)": "low polyreactivity"},
      {"sequence": "QVQLVESGGGLVQAGGSLRLSCAASGITFWHNTMGWYRQAPGKERELVAAISWTGGRTYYADSVKGRFTISRDNAKNTVNFQMNSLNPEDTAVNYCAADFSWTPSGNYDSWGQGTQVTVSS", "polyreactivity (PSR sort gate)": "low polyreactivity"},
      {"sequence": "QVQLVESGGGLVQAGGSLRLSCAASGITFWKYAMGWYRQAPGKERELVAAISKSGGSTYYADSVKGRFTISRDNAKNTVYLQMNSLKPEDTAVYYCAAYPQFWYWDYNYWGQGTQVTVSS", "polyreactivity (PSR sort gate)": "high polyreactivity"},
      {"sequence": "QVQLVESGGGLVQAGGSLRLSCAASGITFWNAMGWYRQAPGKERELVAAITSSGGSTYYADSVKGRFTISRDNAKNTVYLQMNSLKPEDTAVYYCAADYGRTRYDMDYWGQGTQVTVSS", "polyreactivity (PSR sort gate)": "low polyreactivity"},
      {"sequence": "QVQLVESGGGLVQAGGSLRLSCAASGITFWNNAMGWYRQAPGKERELVATISSNGGRTYYADSVKGRFTISRDNAKNSVYLQMNSLKPEDTAVYYCNAARRAYGYNYWGQGTQVTVSS", "polyreactivity (PSR sort gate)": "low polyreactivity"},
      {"sequence": "QVQLVESGGGLVQAGGSLRLSCAASGITFWPYAMGWYRQAPGKERELVAAISFIDGSTSYADSVKGRFTISRDNAKNTVYLQMNSLKPEDTAVYYCAAVIPGPSIWLYYYWGQGTQVTVSS", "polyreactivity (PSR sort gate)": "low polyreactivity"},
      {"sequence": "QVQLVESGGGLVQAGGSLRLSCAASGITFWSNAMGWYRQAPGKERELVAAITSGGNTNYADSVKGRFTISRDNAKNTVYLQMNSLKPEDTAVYYCAKRWTAREPWRKGMGYWGQGTQVTVSS", "polyreactivity (PSR sort gate)": "high polyreactivity"},
      {"sequence": "QVQLVESGGGLVQAGGSLRLSCAASGITFYDNAMGWDRQAPGKEREFVAAISKSGGNTYYADSVKGRFTISRDNAKNTVYLQMNSLKPEDTAVYYCDARTQAFSRKGYGYWGQGTQVTVSS", "polyreactivity (PSR sort gate)": "high polyreactivity"},
      {"sequence": "QVQLVESGGGLVQAGGSLRLSCAASGITFYDNAMGWYRQAPGKERELVAAIRSGDSTYYADSVKGRFTISRDNAKNTVYLQMNSLKPEDTAVYYCAARTPWVYYWRFYYWGQGTQVTVSS", "polyreactivity (PSR sort gate)": "high polyreactivity"},
      {"sequence": "QVQLVESGGGLVQAGGSLRLSCAASGITFYDNAMGWYRQAPGKERELVAGISYDGDSTYADSVKGRFTISRDNAKNTVYLQMNSLKPEDTAVYYCAALGPYDWLWAGDYWGQGTQVTVSS", "polyreactivity (PSR sort gate)": "low polyreactivity"},
      {"sequence": "QVQLVESGGGLVQAGGSLRLSCAASGITFYDNVMGWYRQAPGKERELVAAITSGGSTNYADSVKGRFTISRDNAKNTVYLQMNSLKPEDTAVYYCAAQPRVDYEFPYRYGYWGQGTQVTVSS", "polyreactivity (PSR sort gate)": "low polyreactivity"},
      {"sequence": "QVQLVESGGGLVQAGGSLRLSCAASGITFYDYAMGRYRQAPGKERELVAAISGGGITYYADSVKGRFTISRDNAKNTVYLQMNSLKPEDTAVYYCAAVYIAGYGYDYWGQGTQVTVSS", "polyreactivity (PSR sort gate)": "low polyreactivity"},
      {"sequence": "QVQLVESGGGLVQAGGSLRLSCAASGITFYDYAMGWYRQAPGKERELVAAISFSGSRTYYADSVKGRFTISRDNAKNTVYLQMNCLKPEDTAVYYCATDTQDLHGYSWFDYWGQGTQVTVSS", "polyreactivity (PSR sort gate)": "high polyreactivity"},
      {"sequence": "QVQLVESGGGLVQAGGSLRLSCAASGITFYFYAMGWYRQAPGKERELVAAITSTGTSTYYADSVKGRFTISRDNAKNTVYLQMNSLKPEDSAVYYCAKDQHYPHYQPYWSRYDYWGQGTQVTVSS", "polyreactivity (PSR sort gate)": "low polyreactivity"},
      {"sequence": "QVQLVESGGGLVQAGGSLRLSCAASGITFYGKAMGWYREAPGKERELGAAITGGGGTNYADSVKGRFTISRDNAKKTVYLQMTSLKPEDTAVYYCNRDYFVWFQRGQYKRGSSWYDNWGQGTQVTVSS", "polyreactivity (PSR sort gate)": "low polyreactivity"},
      {"sequence": "QVQLVESGGGLVQAGGSLRLSCAASGITFYGNAMGRYRQAPGKEREVVAAISSSGGTTYYADSVKGRFTISRDNAKNTVYLQMNSLKPEDTAVYFCNALHPVVYYGTYFNLRRYDYWGQGTQVTVSS", "polyreactivity (PSR sort gate)": "low polyreactivity"},
      {"sequence": "QVQLVESGGGLVQAGGSLRLSCAASGITFYGNDMGWYRQAPGKERELVAAISANDGNTYYADSVKGRFTISRDNAKNTVYLQMNSLKPEDTAVYYCAAERYEDYTEYDYWGQGTQVTVSS", "polyreactivity (PSR sort gate)": "low polyreactivity"},
      {"sequence": "QVQLVESGGGLVQAGGSLRLSCAASGITFYGYAMGWYRQAPGKERELVARISRSGGSTYYADSVKGRFTISRDNAKNTVYLQMNSLKPEDTAVYYCAAGYGPSGYTRYYWGQGTQVTVSS", "polyreactivity (PSR sort gate)": "high polyreactivity"},
      {"sequence": "QVQLVESGGGLVQAGGSLRLSCAASGITFYKYVMGWYRQAPGKERELVARISKGGGSTYYADSVKGRFTISRDYAKNTVYLQMNSLKPEDTAVYYCNARGGYYVRSSAEYDYWGQGTQVTVSS", "polyreactivity (PSR sort gate)": "high polyreactivity"},
      {"sequence": "QVQLVESGGGLVQAGGSLRLSCAASGITFYLYALGWYRQAPGKERELVAAISSSGGRTYYADSVKGRFTISRDNAKNTVYLQMNSLKPEDTAVYYCAARRYGVPPTYDYWGQGTQVTVSS", "polyreactivity (PSR sort gate)": "high polyreactivity"},
      {"sequence": "QVQLVESGGGLVQAGGSLRLSCAASGITFYLYDMGWYRQAPGKERELVASITSDGSTDYADSVKGRFTISRDNAKNTVYLQMNSLKPEDTAVYYCNARVTYAWYRFGRSGDDSWGQGTQVTVSS", "polyreactivity (PSR sort gate)": "low polyreactivity"},
      {"sequence": "QVQLVESGGGLVQAGGSLRLSCAASGITFYRNAMGWYRQAPGKEMELVAAITWNGGRTYYADSVKGRFTISRDNAKNTVYLQMNSLKPEDTAVYYCAADSGTRNLASYRYYYWGQGTQVTVSS", "polyreactivity (PSR sort gate)": "low polyreactivity"},
      {"sequence": "QVQLVESGGGLVQAGGSLRLSCAASGITFYRNAMGWYRQAPGKERELVAAITWNGGRTYYADSVKGRFTISRDYAKNTVYLQMNSLKPEDSAVYYCAKRYGSTQSRYVYWGQGTQVTVSS", "polyreactivity (PSR sort gate)": "high polyreactivity"},
      {"sequence": "QVQLVESGGGLVQAGGSLRLSCAASGITFYRYAMGWYRQAPGKDRELVAVISSGGSTNYADSVKGRFTISRDNAKNTVYLQMNSLKPEDTAVFYCNAVSTRFRVRTSDYWGQGTKVTVSS", "polyreactivity (PSR sort gate)": "high polyreactivity"},
      {"sequence": "QVQLVESGGGLVQAGGSLRLSCAASGITFYRYAMGWYRQAPGKERELVAAINSSGGNTYYADSVKGRFTISRDNAKNTVYLQMNSLKPEDTAVYYCAADRVSWVKHYYWGQGTQVTVSS", "polyreactivity (PSR sort gate)": "high polyreactivity"},
      {"sequence": "QVQLVESGGGLVQAGGSLRLSCAASGITFYRYAMGWYRQAPGKERELVAAISASDGSTYYADSVKGRFTISRDHAKNTVYLQMNSLKPEDTAVYYCNARKGYSYGHWGQGTQVTVSS", "polyreactivity (PSR sort gate)": "high polyreactivity"},
      {"sequence": "QVQLVESGGGLVQAGGSLRLSCAASGITFYRYAMGWYRQAPGKERELVAAISRSGGSTYYADSVKGRFTISRDNAKNTVYLQMNSLKPEDTAGYYCAAYILGNRDGYEYWGQGTQVTVSS", "polyreactivity (PSR sort gate)": "high polyreactivity"},
      {"sequence": "QVQLVESGGGLVQAGGSLRLSCAASGITFYSNAMGWYRQAPGKERELVATITRGGSTYYADSVKGRFTISRDNAKNTVYLQMNSLKPEDTAVYYCAADYSYRGREYGYWGQVTQVTVSS", "polyreactivity (PSR sort gate)": "low polyreactivity"},
      {"sequence": "QVQLVESGGGLVQAGGSLRLSCAASGITFYVYTMGWYRQAPGKERELVAAINGSGGSTNYADSVKGRFTISRDNAKNTVYLLMNSLKPEDTAVYYCAADWSLRLYDYWGQGTQVTVSS", "polyreactivity (PSR sort gate)": "low polyreactivity"},
      {"sequence": "QVQLVESGGGLVQAGGSLRLSCAASGITFYWNDMGWYRQATGKERELVAAIRRTAGSTYYADSVKGRFTISRDNAKNTVYLQMNSLKPEDTAVYYCAASRHFARHRGYYFRYDYWGQGTQVTVSS", "polyreactivity (PSR sort gate)": "high polyreactivity"},
      {"sequence": "QVQLVESGGGLVQAGGSLRLSCAASGITFYYYAMGWYRQAPGKERELVASISSVGTTYYADSVKGRFTISGDNAKNTFYLEMNSLKPVDTAVYYCAAVDYVRYYPDEFDYWGQGTQVTVSS", "polyreactivity (PSR sort gate)": "low polyreactivity"},
      {"sequence": "QVQLVESGGGLVQAGGSLRLSCAASGITFYYYAMGWYTQAPGKERELVAAISDNGSRTYYADSVKGRFTISRDNAQNTVYLQMNSLKPEDTAVYYCAAEGSYGYDYWGQGTQVTVSS", "polyreactivity (PSR sort gate)": "high polyreactivity"},
      {"sequence": "QVQLVESGGGLVQAGGSLRLSCAASGITIFGYAMGWYRQAPRTERELVAAINYSGDSTYYADSVKGRFTISRDNAKNTVYLQMNSLKPEDTAVYYCAADVRPYYSAYRGRYYYWGQGTQVTVSS", "polyreactivity (PSR sort gate)": "high polyreactivity"},
      {"sequence": "QVQLVESGGGLVQAGGSLRLSCAASGITIGSNVMGWYRQAPGKERELVAAISQSGGRTYYADSVKGRFTISRDNAKNTVYLQMNSLKPEYTAVYYCAKRQRSFYGRPMGDYWGQGTQVTVSS", "polyreactivity (PSR sort gate)": "high polyreactivity"},
      {"sequence": "QVQLVESGGGLVQAGGSLRLSCAASGITIKRYDMGWYRQAPGKEREFVATISQSGTSTYYADSVKGRFTISRDNAKNTVYLQMNSLKPEDTAVYYCAAYYIGYWYGYYSWGQGTQVTVSS", "polyreactivity (PSR sort gate)": "low polyreactivity"},
      {"sequence": "QVQLVESGGGLVQAGGSLRLSCAASGITIPYNAMGWYRQAPGKERELVAVISWSGGSTYYADSVKGRFTISRDNAKNTVYLQMNRQKPEDTAFYYCAAEPGGGYYYWGQGTKVTVSS", "polyreactivity (PSR sort gate)": "low polyreactivity"},
      {"sequence": "QVQLVESGGGLVQAGGSLRLSCAASGITIRLSALGGYRQAPGNERELVAAITSGGSTYADSVKGRFTISRDNAKNTVYLQMNSLKPEDTAVYYCNAEALVNGGYDYWGQGTQVTVSS", "polyreactivity (PSR sort gate)": "high polyreactivity"},
      {"sequence": "QVQLVESGGGLVQAGGSLRLSCAASGITIRRYAMGWYIQAPGKERELVAAITTGGGGTYYADSVKGRFTISRDNAKNTVYLQMNSLKPEDTAVYYCAATYWRTYPSYYWGQGTQVTVSS", "polyreactivity (PSR sort gate)": "high polyreactivity"},
      {"sequence": "QVQLVESGGGLVQAGGSLRLSCAASGITISVNDMGWYRQAPGKERELVAAISSGDSTNYADSVKGRFTISRDNAKNTVYLQMNSLKPEDTAVSYCAALEGSLTGWQTYDYWGQGTQVTVSS", "polyreactivity (PSR sort gate)": "low polyreactivity"},
      {"sequence": "QVQLVESGGGLVQAGGSLRLSCAASGITIVNYVMGWYRQPPGKERELVAAISIGGGTYYADSVKGRFTISRDNAKNTVYLQMNSLKPEDTAVYYWNASYGGLSFYIGVYDTGYDYWGQGTQVTVSS", "polyreactivity (PSR sort gate)": "low polyreactivity"},
      {"sequence": "QVQLVESGGGLVQAGGSLRLSCAASGITIWNNAMGWSRQAPGKESELVATISSNGGRTYYADSVKGRFTISRDNAKNTVYLQMNSLKPEDTAVYYCNAARRAYGYNYWGQGTQVTVSS", "polyreactivity (PSR sort gate)": "low polyreactivity"}
    ]}
  ]
}
